How the values were obtained:
[1] = target: the molecule itself; test: stepwise photobleaching (TIR microscopy); dilute solution (1 pM) of kin401T99N:mGFP added to imaging chambers with HiLyte 647-labelled microtubules bound to the glass, no ATP, oxygen scavenging agent
[2] = target: the molecule itself; test: SEC; gel filtration of purified kin401T99N:mGFP before concentration

B1: GFP-labelled Drosophila kinesin-1 (aa 1-401) rigor mutant, Kin401T99N:mGFP (domain or fragment)
chain: not shown
notes: The construct without the mutation was a gift from T Surrey; also called rigor kinesin; GFP-labelled rigor kinesin; source: bacteria (BL21(DE3) strain), dimeric fraction purified using gel filtration; not shown: monomeric GFP, C-terminal, kept
In the case of B1, the “stoichiometry N” value [1] is reported as no more than 2 and the “stoichiometry N” value [2] is reported as 2.

— article PMC3985186, “The influence of dynein processivity control, MAPs, and microtubule ends on directional movement of a localising mRNA” (eLife, 2014)
